Measured values: patent US20060052291A1
Each block holds one molecule with its values, some of them ahead of it.

Assays:
[1] = molecular target: T1, chimeric Flt3/G-CSF receptor on transfected mouse Baf/3 cells (human) (UniProt P36888); test: cell-based or functional assay
T1 sequence (looked up): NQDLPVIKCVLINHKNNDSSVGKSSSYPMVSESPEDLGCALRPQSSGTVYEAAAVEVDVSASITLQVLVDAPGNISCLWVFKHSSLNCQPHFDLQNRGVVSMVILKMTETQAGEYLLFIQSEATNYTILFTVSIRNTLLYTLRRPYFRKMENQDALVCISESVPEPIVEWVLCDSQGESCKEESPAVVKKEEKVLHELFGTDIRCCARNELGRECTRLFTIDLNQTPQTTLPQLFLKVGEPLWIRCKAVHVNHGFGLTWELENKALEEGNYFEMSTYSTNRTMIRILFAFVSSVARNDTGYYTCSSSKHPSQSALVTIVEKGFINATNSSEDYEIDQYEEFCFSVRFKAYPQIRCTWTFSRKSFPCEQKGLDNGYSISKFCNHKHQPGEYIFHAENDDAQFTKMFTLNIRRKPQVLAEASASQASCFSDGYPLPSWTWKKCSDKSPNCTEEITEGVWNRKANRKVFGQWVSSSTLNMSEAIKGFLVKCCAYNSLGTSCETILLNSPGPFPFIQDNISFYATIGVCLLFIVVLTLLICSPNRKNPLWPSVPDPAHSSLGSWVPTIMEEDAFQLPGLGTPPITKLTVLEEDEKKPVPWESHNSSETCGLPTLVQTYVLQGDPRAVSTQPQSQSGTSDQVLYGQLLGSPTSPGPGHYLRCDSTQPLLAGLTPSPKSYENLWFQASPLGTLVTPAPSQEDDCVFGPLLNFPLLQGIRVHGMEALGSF

[2] = molecular target: T2, human G-CSF receptor on transfected mouse BaF3 cells (mBaF3/hG-CSFR) (human) (UniProt Q99062); test: cell-based or functional assay
T2 sequence (looked up): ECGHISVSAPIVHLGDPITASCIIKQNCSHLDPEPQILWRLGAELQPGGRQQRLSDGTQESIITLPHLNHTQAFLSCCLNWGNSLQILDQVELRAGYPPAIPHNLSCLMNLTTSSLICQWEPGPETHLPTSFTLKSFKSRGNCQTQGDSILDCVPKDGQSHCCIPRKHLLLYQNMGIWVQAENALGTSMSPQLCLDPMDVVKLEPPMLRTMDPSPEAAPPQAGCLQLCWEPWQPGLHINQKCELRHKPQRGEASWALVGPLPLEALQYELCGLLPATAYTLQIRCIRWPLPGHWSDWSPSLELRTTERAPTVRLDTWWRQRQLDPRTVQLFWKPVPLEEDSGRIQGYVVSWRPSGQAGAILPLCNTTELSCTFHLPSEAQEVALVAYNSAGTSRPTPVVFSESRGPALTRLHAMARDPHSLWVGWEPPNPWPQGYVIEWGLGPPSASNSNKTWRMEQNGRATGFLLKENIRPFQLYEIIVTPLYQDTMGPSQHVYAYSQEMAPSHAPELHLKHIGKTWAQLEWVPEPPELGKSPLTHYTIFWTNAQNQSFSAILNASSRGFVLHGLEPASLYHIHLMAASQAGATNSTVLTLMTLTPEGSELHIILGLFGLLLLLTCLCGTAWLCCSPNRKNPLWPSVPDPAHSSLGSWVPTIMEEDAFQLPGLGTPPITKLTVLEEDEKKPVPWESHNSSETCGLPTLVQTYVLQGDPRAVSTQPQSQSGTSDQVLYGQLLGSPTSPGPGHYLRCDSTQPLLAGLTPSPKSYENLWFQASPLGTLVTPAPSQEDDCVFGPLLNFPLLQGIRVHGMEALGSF

- Average EC50 (n = 12), BAF3/Flt cell proliferation ([3H]-thymidine) [1]: > 200 nM
- Average EC50 (n = 9), BAF3/G-CSF cell proliferation ([3H]-thymidine) [2]: 0.025 nM
- Average Rel. Potency, BAF3/G-CSF cell proliferation [2]: 1
Molecule: recombinant human G-CSF (from UniProt P09919 31-204) (ligand)

- Average EC50 (n = 12), BAF3/Flt cell proliferation ([3H]-thymidine) [1]: 0.03 nM
- Average Rel. Potency, BAF3/Flt cell proliferation [1]: 1
- Average EC50 (n = 9), BAF3/G-CSF cell proliferation ([3H]-thymidine) [2]: > 2 nM
B1: recombinant human flt3 ligand (ligand, UniProt P49771 27-185, looked up)
chain: TQDCSFQHSPISSDFAVKIRELSDYLLQDYPVTVASNLQDEELCGGLWRLVLAQRWMERLKTVAGSKMQGLLERVNTEIHFVTKCAFQPPPSCLRFVQTNISRLLQETSEQLVALKPWITRQNFSRCLELQCQPDSSTLPPPWSPRPLEATAPTAPQPP
